Molecular target: T1, GST–ACS7 (Arabidopsis thaliana, UniProt Q9STR4 1-447)
T1 construct: ACS7, 1-aminocyclopropane-1-carboxylate synthase 7, Arabidopsis thaliana; Vector pDEST15; also called recombinant GST–ACS7; N-tagged GST–ACS7; source: E. coli BL21-CodonPlus (DE3)-RIL, purified (Glutathione-Sepharose 4B); not shown: GST, N-terminal, kept
T1 sequence (looked up): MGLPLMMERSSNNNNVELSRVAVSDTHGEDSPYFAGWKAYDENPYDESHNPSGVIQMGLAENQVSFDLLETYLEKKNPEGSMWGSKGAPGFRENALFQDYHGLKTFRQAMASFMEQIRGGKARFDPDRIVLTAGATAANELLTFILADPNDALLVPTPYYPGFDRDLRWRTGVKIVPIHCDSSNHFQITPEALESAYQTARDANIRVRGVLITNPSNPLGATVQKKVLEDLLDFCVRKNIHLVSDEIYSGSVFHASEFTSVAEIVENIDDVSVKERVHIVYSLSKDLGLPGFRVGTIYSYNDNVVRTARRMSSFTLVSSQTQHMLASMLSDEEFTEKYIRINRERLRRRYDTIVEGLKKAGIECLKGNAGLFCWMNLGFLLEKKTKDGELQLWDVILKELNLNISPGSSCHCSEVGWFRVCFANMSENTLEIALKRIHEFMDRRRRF
Test: pull-down; GST–ACS7 pre-coupled to Glutathione-Sepharose 4B, preincubated with 1 mg/mL BSA; His-tagged ABI1 or ABI2 added in EBC buffer (100 mM NaCl, 0.5% Nonidet P-40, 100 mM NaF, 200 μM sodium orthovanadate, 50 mM Tris-HCl pH 8.0), 1 h, room temperature; washes with NENT buffer at 100/200/300 mM NaCl; immunoblot with anti-GST and anti-His
Settings: both partners purified

B1: His–ABI1 (enzyme, Arabidopsis thaliana, UniProt P49597 1-434, looked up)
chain: MEEVSPAIAGPFRPFSETQMDFTGIRLGKGYCNNQYSNQDSENGDLMVSLPETSSCSVSGSHGSESRKVLISRINSPNLNMKESAAADIVVVDISAGDEINGSDITSEKKMISRTESRSLFEFKSVPLYGFTSICGRRPEMEDAVSTIPRFLQSSSGSMLDGRFDPQSAAHFFGVYDGHGGSQVANYCRERMHLALAEEIAKEKPMLCDGDTWLEKWKKALFNSFLRVDSEIESVAPETVGSTSVVAVVFPSHIFVANCGDSRAVLCRGKTALPLSVDHKPDREDEAARIEAAGGKVIQWNGARVFGVLAMSRSIGDRYLKPSIIPDPEVTAVKRVKEDDCLILASDGVWDVMTDEEACEMARKRILLWHKKNAVAGDASLLADERRKEGKDPAAMSAAEYLSKLAIQRGSKDNISVVVVDLKPRRKLKSKPLN
notes: ABI1, group A protein phosphatase type 2C, Arabidopsis thaliana; Vector pDEST17; also called His-tagged ABI1; source: E. coli BL21-CodonPlus (DE3)-RIL, purified (Ni-Sepharose 6 Fast Flow)
  binding result: binds

B2: His–ABI2 (enzyme, Arabidopsis thaliana, UniProt O04719 1-423, looked up)
chain: MDEVSPAVAVPFRPFTDPHAGLRGYCNGESRVTLPESSCSGDGAMKDSSFEINTRQDSLTSSSSAMAGVDISAGDEINGSDEFDPRSMNQSEKKVLSRTESRSLFEFKCVPLYGVTSICGRRPEMEDSVSTIPRFLQVSSSSLLDGRVTNGFNPHLSAHFFGVYDGHGGSQVANYCRERMHLALTEEIVKEKPEFCDGDTWQEKWKKALFNSFMRVDSEIETVAHAPETVGSTSVVAVVFPTHIFVANCGDSRAVLCRGKTPLALSVDHKPDRDDEAARIEAAGGKVIRWNGARVFGVLAMSRSIGDRYLKPSVIPDPEVTSVRRVKEDDCLILASDGLWDVMTNEEVCDLARKRILLWHKKNAMAGEALLPAEKRGEGKDPAAMSAAEYLSKMALQKGSKDNISVVVVDLKGIRKFKSKSLN
notes: ABI2, group A protein phosphatase type 2C, Arabidopsis thaliana; Vector pDEST17; also called His-tagged ABI2; source: E. coli BL21-CodonPlus (DE3)-RIL, purified (Ni-Sepharose 6 Fast Flow)
  binding result: binds

Source: publication PMC7227406, “Protein Phosphatases Type 2C Group A Interact with and Regulate the Stability of ACC Synthase 7 in Arabidopsis” (Cells, 2020)
